Assay results: patent US20240409645A1 (DUALYX, published 2024)

T1: human common cytokine receptor γ-chain (γc; IL-2Rγ; CD132), recombinant protein (human, UniProt P31785 23-262)
T1 construct: also called human IL-2R subunit CD132
T1 sequence: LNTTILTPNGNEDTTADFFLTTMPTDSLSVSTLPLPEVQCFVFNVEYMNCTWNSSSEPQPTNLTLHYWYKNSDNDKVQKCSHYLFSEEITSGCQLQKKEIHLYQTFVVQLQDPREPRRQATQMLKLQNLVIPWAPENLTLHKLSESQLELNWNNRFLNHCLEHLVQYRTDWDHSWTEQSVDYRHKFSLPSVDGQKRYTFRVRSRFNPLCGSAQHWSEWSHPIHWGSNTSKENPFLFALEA

T2: cynomolgus monkey IL-2Rγ/CD132 subunit (cynomolgus monkey, UniProt A0A2K5VGJ6 23-262)
T2 construct: also called Cyno IL-2R subunit
T2 sequence: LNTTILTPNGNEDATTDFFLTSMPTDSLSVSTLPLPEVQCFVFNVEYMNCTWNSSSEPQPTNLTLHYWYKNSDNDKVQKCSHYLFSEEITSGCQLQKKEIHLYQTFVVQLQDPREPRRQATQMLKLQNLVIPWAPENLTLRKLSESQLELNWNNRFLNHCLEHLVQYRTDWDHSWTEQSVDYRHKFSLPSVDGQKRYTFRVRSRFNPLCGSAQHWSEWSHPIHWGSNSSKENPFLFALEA

T3: mouse IL-2Rγ (mouse, UniProt P34902 23-263, limits assumed)
T3 construct: Recombinant mouse IL-2Rγ protein coated on the ELISA plate or immobilised on the CM5 chip; also called mo IL-2R
T3 sequence (looked up): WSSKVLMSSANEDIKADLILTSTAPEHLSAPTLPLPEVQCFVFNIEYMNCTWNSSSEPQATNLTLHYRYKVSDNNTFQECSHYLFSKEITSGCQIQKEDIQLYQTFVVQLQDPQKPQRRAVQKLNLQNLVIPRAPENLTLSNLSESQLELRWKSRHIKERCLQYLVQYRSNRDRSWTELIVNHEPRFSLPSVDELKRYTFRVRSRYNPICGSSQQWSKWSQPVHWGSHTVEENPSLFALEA

T4: human IL-2Rγ (common cytokine receptor γ-chain) (human, UniProt P31785 23-262, limits assumed)
T4 construct: Recombinant human IL-2Rγ protein coated on the ELISA plate or immobilised on the CM5 chip; also called hu IL-2R; CD132
T4 sequence: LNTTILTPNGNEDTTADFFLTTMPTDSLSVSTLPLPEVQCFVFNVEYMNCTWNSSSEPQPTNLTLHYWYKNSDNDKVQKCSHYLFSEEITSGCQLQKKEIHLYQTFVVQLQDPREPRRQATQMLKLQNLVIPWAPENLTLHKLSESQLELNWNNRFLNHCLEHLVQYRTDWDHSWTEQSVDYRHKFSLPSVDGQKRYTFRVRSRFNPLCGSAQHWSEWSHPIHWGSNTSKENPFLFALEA


Assays:
[1] = target: T1, human common cytokine receptor γ-chain …; assay: P.E. off-rate SPR
Outline: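 Dissociation rates of nanobody (VHH) periplasmic extracts were measured across a 120s window on an amine-coupled carboxymethyl dextran surface bearing about 2500 RUs of receptor; injection flow 30 uL/min.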

[2] = target: T1, human common cytokine receptor γ-chain …; assay: P.E. binding ELISA
Outline: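 Read-out: OD at 450 nm, specificity called versus negative controls. Receptor chains (human or mouse IL-2Rα, β, γ) were coated directly overnight at 4° C; 4% Marvel/PBS block 1 h; P.E. at 1:5 dilution in 1% Marvel/PBS incubated 1 h.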

[3] = target: T1, human common cytokine receptor γ-chain …; assay: ELISA, bivalent VHH-hFc
Experimental: (§1) Monospecific monovalent and bivalent IL-2Rα-, IL-2Rβ- and IL-2Rγ-specific antibodies that were selected on human IL-2R subunits, were evaluated for their cross-reactivity in an ELISA. Human and cynomolgus monkey receptor subunits (Acrobiosystems, KactusBiosystems) were coated at 1 μg/mL in PBS (pH 7.4) in a Maxisorp plate (Nunc) and incubated overnight at 4° C. The plates were further washed with PBS-Tween pH 7.4 and incubated with 1% cascin/PBS-Tween blocking solution for 1 hour shaking at 400 rpm. Subsequently, the plate was washed three times with PBS-Tween pH 7.4, after which the test antibodies diluted in 0.1% casein/PBS-Tween were added to the plate and incubated for 1 hour. The plate was again washed three times, after which goat anti-human IgG Fc (HRP) detection antibody (abcam) was added to the plate and incubated for 30 min. The colouring reaction was performed with TMB (Sigma-Aldrich) and stopped with 0.5N H₂SO₄.
(§2) Absorbance was measured at 450 nm with the reference wavelength of 620 nm using spectrophotometer. Final analysis and graphic output were performed with GraphPad Prism version 8 (GraphPad Software). The dose-response binding curves were fit to a nonlinear regression model (log (agonist) vs. response with a variable slope (four parameters)).

[4] = target: T2, cynomolgus monkey IL-2Rγ/CD132 subunit; assay: ELISA, bivalent VHH-hFc
Experimental: as §1, §2

[5] = target: T2, cynomolgus monkey IL-2Rγ/CD132 subunit; assay: ELISA, bivalent; EC50 cyno vs human subunit
Experimental: as §1, §2

mouse IL-2Rγ [6] = target: T3, mouse IL-2Rγ; assay: SPR off-rate ranking, periplasmic extract over immobilised mouse IL-2Rγ
Experimental: (§3) SPR was performed to determine dissociation rates using Biacore 3000 instrument (GE Healthcare). Briefly, human and mouse IL-2R proteins were immobilized on carboxylmethyl dextran sensor chip (CM5) at approximately 2500 RUs using amine coupling in acetate buffer (GE Healthcare). The VHH-containing P.E. were loaded with a flow rate of 30 uL/min and the off-rates were measured over a 120s period.

mouse IL-2Rγ [7] = target: T3, mouse IL-2Rγ; assay: binding ELISA, periplasmic extract on coated mouse IL-2Rγ
Experimental: (§4) In a binding ELISA, human or mouse IL-2Rα, IL-2Rβ and IL-2Rγ proteins were coated directly on maxisorp microtiter plates overnight at 4° C. Free binding sites were blocked using 4% Marvel in PBS for 1 hour. Next, 1:5 dilution of P.E. in 1% Marvel/PBS were added to wells and incubated for 1 hour. […] Binding specificity was determined based on O.D. at 450 nm values compared to negative controls.

[8] = target: T4, human IL-2Rγ (common cytokine receptor …); assay: SPR off-rate ranking, periplasmic extract over immobilised human IL-2Rγ
Experimental: as §3

[9] = target: T4, human IL-2Rγ (common cytokine receptor …); assay: binding ELISA, periplasmic extract on coated human IL-2Rγ
Experimental: as §4

Binder | koff [1] [s⁻¹] | OD450 nm [2] [OD450 nm] | EC50 [3] [pM] | other results
32-MP04A08 VHH (periplasmic extract) (VHH, soluble VHH in periplasmic extract) VHH: QVQLVESGGGLVQAGGSLRLSCAASGRTFGSTAVGWFRQVPGKEREFVSAINRSGSATTYADSVKGRFTISRDNAKNTVYLQMNSLTPEDTGVYYCAADSLPYGRPYYFQRSAGEYDYWGQGTQVTVSS | 0.0616 | 0.407 | – | –
32-MP04A08 VHH-hFc, monospecific bivalent (Fc fusion, IgG1 Fc LALA-PG; not shown: human IgG1 CH2 and CH3 domains (Fc)) QVQLVESGGGLVQAGGSLRLSCAASGRTFGSTAVGWFRQVPGKEREFVSAINRSGSATTYADSVKGRFTISRDNAKNTVYLQMNSLTPEDTGVYYCAADSLPYGRPYYFQRSAGEYDYWGQGTQVTVSS | – | – | 140 | binding result [4]: no binding
FJ1427_P035MP07C12 (VHH, Tested as soluble VHH fragment in periplasmic extract (P.E.); also called Clone nr) VHH: QVQLVESGGGLVQAGGSLRLSCAASGRSLSRDAMGWFRQAPGKEREFVAVMSWGGDTFYTDSVEGRFTFSRDNAKNAVYLEMNDLQPEDTAVYYCAAAPTSFATTAYSSSNSYSYWGRGTQVTVSS | – | – | – | koff (mouse IL-2Rγ [6]): 0.0146 s⁻¹; P.E. binding ELISA OD450 (mouse IL-2Rγ [7]): 0.071 OD450 nm; koff [8]: 0.00197 s⁻¹; P.E. binding ELISA OD450 [9]: 0.426 OD450 nm
36-MP07F02 VHH (periplasmic extract) (VHH, soluble VHH in periplasmic extract) VHH: QVQLVESGGGLVQAGGSLRLSCAASGRTLSRYAMGWFRQAPGSEREFVAASSWGGDTFYADSVEGRFTFSRDNAKNAVYLQMNSLQPEDTAAYYCAAAPTSFPTTAYSSSNSYAYWGQGTQVTVSS | 0.00331 | 0.896 | – | –

Further lines, with some results ahead:

koff [1] [s⁻¹] | OD450 nm [2] [OD450 nm] | EC50 [3] [pM] | Binder | other results
0.00131 | 0.362 | – | 27-MP04G01 VHH (periplasmic extract) (VHH, soluble VHH in periplasmic extract) VHH: QVQLVESGGGLVQAGGSLTLSCAAPGRTFGTDVVGWFRQAPGKEREFVASISRSGDGIYYDDSVKGRFTISRNNAWNTVNLQMNSLKVEDTAVYYCAAGDGWSTYDYWGQGTQVTVSS | –
– | – | 131 | 27-MP04G01 VHH-hFc, monospecific bivalent (Fc fusion, IgG1 Fc LALA-PG; not shown: human IgG1 CH2 and CH3 domains (Fc)) QVQLVESGGGLVQAGGSLTLSCAAPGRTFGTDVVGWFRQAPGKEREFVASISRSGDGIYYDDSVKGRFTISRNNAWNTVNLQMNSLKVEDTAVYYCAAGDGWSTYDYWGQGTQVTVSS | EC50 [4]: 147 pM; Fold change [5]: 1.1 fold
0.00625 | 0.157 | – | 29-MP04H02 VHH (periplasmic extract) (VHH, soluble VHH in periplasmic extract) VHH: QVQLVESGGGLVQAGGSLRLACVASGLTFDNYYMGWFRQAPGKEREFVAGIIWNGDHTAYADSIKGRFTISRDNAKNTAYLRMNSLKPEDTAVYYCAATFWIERATTPDIGQYAYWGQGTQVTVSS | –
– | – | 179 | 29-MP04H02 VHH-hFc, monospecific bivalent (Fc fusion, IgG1 Fc LALA-PG; not shown: human IgG1 CH2 and CH3 domains (Fc)) QVQLVESGGGLVQAGGSLRLACVASGLTFDNYYMGWFRQAPGKEREFVAGIIWNGDHTAYADSIKGRFTISRDNAKNTAYLRMNSLKPEDTAVYYCAATFWIERATTPDIGQYAYWGQGTQVTVSS | EC50 [4]: 260 pM; Fold change [5]: 1.4 fold
